This assay concerns the target McTnI_(29–211), mouse cardiac TnI with the NH2-terminal extension removed (mouse, UniProt P48787 29-211). Briefly: ELISA.

McTnI_(29–211), mouse cardiac TnI with the NH2-terminal extension removed, sequence (P48787 29-211): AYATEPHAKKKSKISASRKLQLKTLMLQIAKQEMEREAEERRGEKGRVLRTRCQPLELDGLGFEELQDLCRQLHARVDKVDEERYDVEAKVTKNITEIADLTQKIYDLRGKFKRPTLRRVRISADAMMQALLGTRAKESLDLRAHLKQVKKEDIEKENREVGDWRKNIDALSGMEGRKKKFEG

B1: chicken fast TnC (natural protein)
chain: not shown
With B1, the binding result is reported as “binds”.

Source of the values: PMC3168705 (The FEBS journal, 2011).
